Test results reported in US20110166062A1 (INDIANA UNIVERSITY RESEARCH AND TECHNOLOGY, published 2011).
Bridges are numbered along the chain shown (N, C = ends). Where no end group is shown, it is not given here. [ ]: non-standard residue; d: D form. Aib = CC(C)(N)C(=O)O

T1: GIP receptor (UniProt P48546 22-466)
T1 sequence (looked up): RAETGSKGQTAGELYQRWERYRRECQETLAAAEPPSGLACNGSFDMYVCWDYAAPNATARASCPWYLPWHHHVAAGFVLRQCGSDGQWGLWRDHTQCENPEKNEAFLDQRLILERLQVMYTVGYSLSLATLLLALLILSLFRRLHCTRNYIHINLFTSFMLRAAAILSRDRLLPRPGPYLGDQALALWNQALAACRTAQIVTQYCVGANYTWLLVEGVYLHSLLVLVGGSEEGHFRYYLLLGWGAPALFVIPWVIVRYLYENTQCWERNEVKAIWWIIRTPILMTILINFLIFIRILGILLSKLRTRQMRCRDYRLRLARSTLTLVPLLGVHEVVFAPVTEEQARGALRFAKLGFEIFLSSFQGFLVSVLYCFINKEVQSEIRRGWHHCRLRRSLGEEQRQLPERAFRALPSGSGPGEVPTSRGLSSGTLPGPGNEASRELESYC


Key:
Test in all cases: cell-based or functional assay
glucagon receptor = glucagon receptor (UniProt P47871 26-477, limits assumed)
GLP-1 receptor = GLP-1 receptor (UniProt P43220 24-463, limits assumed)
GIP receptor = target: T1, GIP receptor

glucagon receptor, sequence (P47871 26-477 limits assumed): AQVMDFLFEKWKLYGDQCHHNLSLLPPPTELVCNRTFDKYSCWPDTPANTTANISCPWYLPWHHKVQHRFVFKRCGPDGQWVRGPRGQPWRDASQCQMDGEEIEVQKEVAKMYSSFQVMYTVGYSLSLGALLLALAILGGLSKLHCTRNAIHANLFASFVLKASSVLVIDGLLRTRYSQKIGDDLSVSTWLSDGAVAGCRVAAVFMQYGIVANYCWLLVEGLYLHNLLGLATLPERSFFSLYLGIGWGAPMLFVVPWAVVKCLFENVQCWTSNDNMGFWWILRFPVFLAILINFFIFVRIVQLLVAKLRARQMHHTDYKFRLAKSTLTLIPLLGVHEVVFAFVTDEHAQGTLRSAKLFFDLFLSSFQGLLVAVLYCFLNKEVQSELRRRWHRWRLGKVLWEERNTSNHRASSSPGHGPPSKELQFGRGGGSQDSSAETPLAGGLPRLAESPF

| Binder | EC50 (glucagon receptor) | relative activity (glucagon receptor) | EC50 (GLP-1 receptor) | relative activity (GLP-1 receptor) | EC50 (GIP receptor) | relative activity (GIP receptor) |
| --- | --- | --- | --- | --- | --- | --- |
| YAEGTFISDYSIAMDKIHQQDFVNWLLAQ-NH2 [mt-106] | 165 nM | 0.11% | 264 nM | 0.02% | – | – |
| HAEGTFISDYSIAMDEIHQKDFVNWLLAQ-NH2 (lactam 16-20; N-terminus assumed; SMILES CC[C@H](C)[C@H](NC(=O)[C@H](CO)NC(=O)[C@H](Cc1ccc(O)cc1)NC(=O)[C@H](CC(=O)O)NC(=O)[C@H](CO)NC(=O)[C@@H](NC(=O)[C@H](Cc1ccccc1)NC(=O)[C@@H](NC(=O)CNC(=O)[C@H](CCC(=O)O)NC(=O)[C@H](C)NC(=O)[C@@H](N)Cc1c[nH]cn1)[C@@H](C)O)[C@@H](C)CC)C(=O)N[C@@H](C)C(=O)N[C@@H](CCSC)C(=O)N[C@@H](CC(=O)O)C(=O)N[C@H]1CCC(=O)NCCCC[C@@H](C(=O)N[C@@H](CC(=O)O)C(=O)N[C@@H](Cc2ccccc2)C(=O)N[C@H](C(=O)N[C@@H](CC(N)=O)C(=O)N[C@@H](Cc2c[nH]c3ccccc23)C(=O)N[C@@H](CC(C)C)C(=O)N[C@@H](CC(C)C)C(=O)N[C@@H](C)C(=O)N[C@@H](CCC(N)=O)C(N)=O)C(C)C)NC(=O)[C@H](CCC(N)=O)NC(=O)[C@H](Cc2c[nH]cn2)NC(=O)[C@H]([C@@H](C)CC)NC1=O) [mt-95] | 280 nM | 0.04% | 48.9 nM | 0.08% | 0.465 nM | 10.5% |
| HAEGTFTSDYSIYMDEIHQKDFVNWLLAQ-NH2 (lactam 16-20; N-terminus assumed; SMILES CC[C@H](C)[C@H](NC(=O)[C@H](CO)NC(=O)[C@H](Cc1ccc(O)cc1)NC(=O)[C@H](CC(=O)O)NC(=O)[C@H](CO)NC(=O)[C@@H](NC(=O)[C@H](Cc1ccccc1)NC(=O)[C@@H](NC(=O)CNC(=O)[C@H](CCC(=O)O)NC(=O)[C@H](C)NC(=O)[C@@H](N)Cc1c[nH]cn1)[C@@H](C)O)[C@@H](C)O)C(=O)N[C@@H](Cc1ccc(O)cc1)C(=O)N[C@@H](CCSC)C(=O)N[C@@H](CC(=O)O)C(=O)N[C@H]1CCC(=O)NCCCC[C@@H](C(=O)N[C@@H](CC(=O)O)C(=O)N[C@@H](Cc2ccccc2)C(=O)N[C@H](C(=O)N[C@@H](CC(N)=O)C(=O)N[C@@H](Cc2c[nH]c3ccccc23)C(=O)N[C@@H](CC(C)C)C(=O)N[C@@H](CC(C)C)C(=O)N[C@@H](C)C(=O)N[C@@H](CCC(N)=O)C(N)=O)C(C)C)NC(=O)[C@H](CCC(N)=O)NC(=O)[C@H](Cc2c[nH]cn2)NC(=O)[C@H]([C@@H](C)CC)NC1=O) [mt-97] | 4.08 nM | 3.19% | 2.36 nM | 1.27% | 1.75 nM | 2.81% |
| HSQGTFTSDYSIYLDEKHQKEFIAWLLAQ-NH2 (lactam 16-20, 17-21; N-terminus assumed; SMILES CC[C@H](C)[C@H](NC(=O)[C@H](Cc1ccccc1)NC(=O)[C@@H]1CCC(=O)NCCCC[C@@H]2NC(=O)[C@@H](NC(=O)[C@H](CC(=O)O)NC(=O)[C@H](CC(C)C)NC(=O)[C@H](Cc3ccc(O)cc3)NC(=O)[C@@H](NC(=O)[C@H](CO)NC(=O)[C@H](Cc3ccc(O)cc3)NC(=O)[C@H](CC(=O)O)NC(=O)[C@H](CO)NC(=O)[C@@H](NC(=O)[C@H](Cc3ccccc3)NC(=O)[C@@H](NC(=O)CNC(=O)[C@H](CCC(N)=O)NC(=O)[C@H](CO)NC(=O)[C@@H](N)Cc3c[nH]cn3)[C@@H](C)O)[C@@H](C)O)[C@@H](C)CC)CCC(=O)NCCCC[C@H](NC(=O)[C@H](CCC(N)=O)NC(=O)[C@H](Cc3c[nH]cn3)NC2=O)C(=O)N1)C(=O)N[C@@H](C)C(=O)N[C@@H](Cc1c[nH]c2ccccc12)C(=O)N[C@@H](CC(C)C)C(=O)N[C@@H](CC(C)C)C(=O)N[C@@H](C)C(=O)N[C@@H](CCC(N)=O)C(N)=O) [mt-93] | 3 nM | – | 0.04 nM | – | – | – |
| YAEGTFTSDYSIYMDEIHQKDFVNWLLAQ-NH2 (lactam 16-20; N-terminus assumed; SMILES CC[C@H](C)[C@H](NC(=O)[C@H](CO)NC(=O)[C@H](Cc1ccc(O)cc1)NC(=O)[C@H](CC(=O)O)NC(=O)[C@H](CO)NC(=O)[C@@H](NC(=O)[C@H](Cc1ccccc1)NC(=O)[C@@H](NC(=O)CNC(=O)[C@H](CCC(=O)O)NC(=O)[C@H](C)NC(=O)[C@@H](N)Cc1ccc(O)cc1)[C@@H](C)O)[C@@H](C)O)C(=O)N[C@@H](Cc1ccc(O)cc1)C(=O)N[C@@H](CCSC)C(=O)N[C@@H](CC(=O)O)C(=O)N[C@H]1CCC(=O)NCCCC[C@@H](C(=O)N[C@@H](CC(=O)O)C(=O)N[C@@H](Cc2ccccc2)C(=O)N[C@H](C(=O)N[C@@H](CC(N)=O)C(=O)N[C@@H](Cc2c[nH]c3ccccc23)C(=O)N[C@@H](CC(C)C)C(=O)N[C@@H](CC(C)C)C(=O)N[C@@H](C)C(=O)N[C@@H](CCC(N)=O)C(N)=O)C(C)C)NC(=O)[C@H](CCC(N)=O)NC(=O)[C@H](Cc2c[nH]cn2)NC(=O)[C@H]([C@@H](C)CC)NC1=O) [mt-98] | 957 nM | 0.01% | 2.82 nM | 1.42% | 0.196 nM | 25% |
| HSQGTFTSDYSKYLDEIHQKEFIAWLLAQ-NH2 [mt-66] | 2 nM | 13% | 0.13 nM | 38.5% | – | – |
| Y[Aib]EGTFISDYSIAMDKIHQQDFVCWLLAQKGKKNWLKHNITQ-NH2 [mt-102] | 799 nM | 0.02% | 98.4 nM | 0.06% | – | – |
| YAEGTFISDYSIAMDEIHQKDFVNWLLAQ-NH2 (lactam 16-20; N-terminus assumed; SMILES CC[C@H](C)[C@H](NC(=O)[C@H](CO)NC(=O)[C@H](Cc1ccc(O)cc1)NC(=O)[C@H](CC(=O)O)NC(=O)[C@H](CO)NC(=O)[C@@H](NC(=O)[C@H](Cc1ccccc1)NC(=O)[C@@H](NC(=O)CNC(=O)[C@H](CCC(=O)O)NC(=O)[C@H](C)NC(=O)[C@@H](N)Cc1ccc(O)cc1)[C@@H](C)O)[C@@H](C)CC)C(=O)N[C@@H](C)C(=O)N[C@@H](CCSC)C(=O)N[C@@H](CC(=O)O)C(=O)N[C@H]1CCC(=O)NCCCC[C@@H](C(=O)N[C@@H](CC(=O)O)C(=O)N[C@@H](Cc2ccccc2)C(=O)N[C@H](C(=O)N[C@@H](CC(N)=O)C(=O)N[C@@H](Cc2c[nH]c3ccccc23)C(=O)N[C@@H](CC(C)C)C(=O)N[C@@H](CC(C)C)C(=O)N[C@@H](C)C(=O)N[C@@H](CCC(N)=O)C(N)=O)C(C)C)NC(=O)[C@H](CCC(N)=O)NC(=O)[C@H](Cc2c[nH]cn2)NC(=O)[C@H]([C@@H](C)CC)NC1=O) [mt-96] | 61.7 nM | 0.29% | 92.9 nM | 0.04% | 0.058 nM | 84.5% |
| YXEGTFISDYSIAMDKIHQQDFVNWLLAQKGKKNWLKHNITQ (C-terminal amide) [mt-100] | 1460 nM | 0.01% | 552 nM | 0.01% | 0.016 nM | 306% |
| YAEGTFISDYSIAMDKIHQQDFVNWLLAQKGKKNWLKHNITQ-NH2 [mt-99] | 23300 nM | 0% | 4550 nM | 0% | 0.049 nM | 100% |
| HSQGTFTSDYSIYLDEIHQKEFIAWLMNT-NH2 (lactam 16-20; N-terminus assumed; SMILES CC[C@H](C)[C@H](NC(=O)[C@H](Cc1ccccc1)NC(=O)[C@H](CCC(=O)O)NC(=O)[C@@H]1CCCCNC(=O)CC[C@H](NC(=O)[C@H](CC(=O)O)NC(=O)[C@H](CC(C)C)NC(=O)[C@H](Cc2ccc(O)cc2)NC(=O)[C@@H](NC(=O)[C@H](CO)NC(=O)[C@H](Cc2ccc(O)cc2)NC(=O)[C@H](CC(=O)O)NC(=O)[C@H](CO)NC(=O)[C@@H](NC(=O)[C@H](Cc2ccccc2)NC(=O)[C@@H](NC(=O)CNC(=O)[C@H](CCC(N)=O)NC(=O)[C@H](CO)NC(=O)[C@@H](N)Cc2c[nH]cn2)[C@@H](C)O)[C@@H](C)O)[C@@H](C)CC)C(=O)N[C@@H]([C@@H](C)CC)C(=O)N[C@@H](Cc2c[nH]cn2)C(=O)N[C@@H](CCC(N)=O)C(=O)N1)C(=O)N[C@@H](C)C(=O)N[C@@H](Cc1c[nH]c2ccccc12)C(=O)N[C@@H](CC(C)C)C(=O)N[C@@H](CCSC)C(=O)N[C@@H](CC(N)=O)C(=O)N[C@H](C(N)=O)[C@@H](C)O) [mt-62] | 0.45 nM | 42.2% | 0.1 nM | 40% | 5.18 nM | 1.6% |
